Assay results: patent US20100209939A1

B1: mutated epitope peptide A11GRKMDR17 (SEQ ID NO: 62) (peptide)
peptide: AGRKMDR

How the values were obtained:
[1] = molecular target: human BNP(1-32), synthetic peptide (Sigma-Aldrich #B-5900) (human); experiment: sandwich ELISA, L21016 capture; BNP(1-32) 20 pg/ml
[2] = molecular target: human BNP(1-32), synthetic peptide (Sigma-Aldrich #B-5900) (human); experiment: sandwich ELISA, L21016 capture; BNP(1-32) 39 pg/ml
[3] = molecular target: human BNP(1-32), synthetic peptide (Sigma-Aldrich #B-5900) (human); experiment: sandwich ELISA, L21016 capture; BNP(1-32) 78 pg/ml
[4] = molecular target: human BNP(1-32), synthetic peptide (Sigma-Aldrich #B-5900) (human); experiment: sandwich ELISA, L21016 capture; BNP(1-32) 625 pg/ml
[5] = molecular target: human BNP(1-32), synthetic peptide (Sigma-Aldrich #B-5900) (human); experiment: sandwich ELISA, L21016 capture; BNP(1-32) 1,250 pg/ml
[6] = molecular target: human BNP(1-32), synthetic peptide (Sigma-Aldrich #B-5900) (human); experiment: sandwich ELISA, L21016 capture; BNP(1-32) 2,500 pg/ml
[7] = molecular target: human BNP(1-32), synthetic peptide (Sigma-Aldrich #B-5900) (human); experiment: sandwich ELISA, L21016 capture; BNP(1-32) 312.5 pg/ml
[8] = molecular target: human BNP(1-32), synthetic peptide (Sigma-Aldrich #B-5900) (human); experiment: sandwich ELISA, L21016 capture; BNP(1-32) 5,000 pg/ml
[9] = molecular target: human BNP(1-32), synthetic peptide (Sigma-Aldrich #B-5900) (human); experiment: sandwich ELISA, L21016 capture; BNP(1-32) 10,000 pg/ml
[10] = molecular target: human BNP(1-32), synthetic peptide (Sigma-Aldrich #B-5900) (human); experiment: sandwich ELISA, L21016 capture; BNP(1-32) 156.25 pg/ml
[11] = molecular target: human BNP(1-32), synthetic peptide (Sigma-Aldrich #B-5900) (human); experiment: sandwich ELISA, L21016 capture; BNP(1-32) 0 pg/ml (blank)
[12] = molecular target: human proBNP(1-108), recombinant protein produced in E. coli (HyTest), non-glycosylated (human) (UniProt P16860); experiment: sandwich ELISA, hinge 76 capture, HRP-mAb; proBNP(1-108) 20 pg/ml
human proBNP(1-108), recombinant protein produced in E. coli (HyTest), non-glycosylated (human), sequence (P16860 27-134): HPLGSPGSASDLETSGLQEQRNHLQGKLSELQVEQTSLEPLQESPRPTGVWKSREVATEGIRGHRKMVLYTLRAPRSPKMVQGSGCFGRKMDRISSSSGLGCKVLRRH

[13] = molecular target: human proBNP(1-108), recombinant protein produced in E. coli (HyTest), non-glycosylated (human) (UniProt P16860); experiment: sandwich ELISA, hinge 76 capture, HRP-mAb; proBNP(1-108) 39 pg/ml
[14] = molecular target: human proBNP(1-108), recombinant protein produced in E. coli (HyTest), non-glycosylated (human) (UniProt P16860); experiment: sandwich ELISA, hinge 76 capture, HRP-mAb; proBNP(1-108) 78 pg/ml
[15] = molecular target: human proBNP(1-108), recombinant protein produced in E. coli (HyTest), non-glycosylated (human) (UniProt P16860); experiment: sandwich ELISA, hinge 76 capture, HRP-mAb; proBNP(1-108) 625 pg/ml
[16] = molecular target: human proBNP(1-108), recombinant protein produced in E. coli (HyTest), non-glycosylated (human) (UniProt P16860); experiment: sandwich ELISA, hinge 76 capture, HRP-mAb; proBNP(1-108) 1,250 pg/ml
[17] = molecular target: human proBNP(1-108), recombinant protein produced in E. coli (HyTest), non-glycosylated (human) (UniProt P16860); experiment: sandwich ELISA, hinge 76 capture, HRP-mAb; proBNP(1-108) 2,500 pg/ml
[18] = molecular target: human proBNP(1-108), recombinant protein produced in E. coli (HyTest), non-glycosylated (human) (UniProt P16860); experiment: sandwich ELISA, hinge 76 capture, HRP-mAb; proBNP(1-108) 312.5 pg/ml
[19] = molecular target: human proBNP(1-108), recombinant protein produced in E. coli (HyTest), non-glycosylated (human) (UniProt P16860); experiment: sandwich ELISA, hinge 76 capture, HRP-mAb; proBNP(1-108) 5,000 pg/ml
[20] = molecular target: human proBNP(1-108), recombinant protein produced in E. coli (HyTest), non-glycosylated (human) (UniProt P16860); experiment: sandwich ELISA, hinge 76 capture, HRP-mAb; proBNP(1-108) 10,000 pg/ml
[21] = molecular target: human proBNP(1-108), recombinant protein produced in E. coli (HyTest), non-glycosylated (human) (UniProt P16860); experiment: sandwich ELISA, hinge 76 capture, HRP-mAb; proBNP(1-108) 156.25 pg/ml
[22] = molecular target: human proBNP(1-108), recombinant protein produced in E. coli (HyTest), non-glycosylated (human) (UniProt P16860); experiment: sandwich ELISA, hinge 76 capture, HRP-mAb; proBNP(1-108) 0 pg/ml (blank)
[23] = molecular target: human BNP(1-32), synthetic peptide (Sigma-Aldrich #B-5900) (human); experiment: sandwich ELISA, L21016 capture, BNP(1-32) 5 ng/ml; 50B7 0.5 µg/ml alone, no 20G7
[24] = molecular target: glycosylated human proBNP(1-108), recombinant protein from HEK293 cells (HyTest) (human) (UniProt P16860); experiment: SPR ProteOn XPR36, mAb captured by anti-Fc, soluble antigen 13-200 nM
glycosylated human proBNP(1-108), recombinant protein from HEK293 cells (HyTest) (human), sequence (P16860 27-134): as above

[25] = molecular target: human proBNP(1-108), recombinant protein produced in E. coli (HyTest), non-glycosylated (human) (UniProt P16860); experiment: as above
[26] = molecular target: 24C5 monoclonal antibody (HyTest); experiment: competition ELISA: BNP(1-32) immobilised at 0.5 µg/ml, 24C5 at 0.5 µg/ml mixed with the soluble peptide, anti-mouse IgG-peroxidase; % inhibition of the binding of 24C5 to BNP(1-32)

human BNP(1-32), synthetic peptide (Sigma-Aldrich #B-5900) (human), sequence (peptide, as listed by the source): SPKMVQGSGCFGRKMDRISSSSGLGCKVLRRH

Row | Molecule | OD 490 nm [1] | OD 490 nm [2] | OD 490 nm [3] | OD 490 nm [4] | OD 490 nm [5] | OD 490 nm [6] | OD 490 nm [7] | OD 490 nm [8] | OD 490 nm [9] | OD 490 nm [10] | OD 490 nm [11] | OD [12] | OD [13] | OD [14] | OD [15] | OD [16] | OD [17] | OD [18] | OD [19] | OD [20] | further results
1 | 24C5 monoclonal antibody (HyTest) | 0.068 OD | 0.055 OD | 0.052 OD | 0.059 OD | 0.056 OD | 0.067 OD | 0.063 OD | 0.068 OD | 0.077 OD | 0.071 OD | 0.071 OD | 0.052 OD | 0.056 OD | 0.056 OD | 0.07 OD | 0.068 OD | 0.069 OD | 0.035 OD | 0.117 OD | 0.22 OD | OD [21]: 0.055 OD; OD [22]: 0.044 OD
2 | 26E2 monoclonal antibody (HyTest) | 0.034 OD | 0.032 OD | 0.055 OD | 0.029 OD | 0.031 OD | 0.035 OD | 0.027 OD | 0.041 OD | 0.048 OD | 0.032 OD | 0.022 OD | 0.028 OD | 0.028 OD | 0.033 OD | 0.024 OD | 0.024 OD | 0.031 OD | 0.028 OD | 0.041 OD | 0.158 OD | OD [21]: 0.027 OD; OD [22]: 0.024 OD
3 | 50B7 monoclonal antibody (HyTest) |  |  |  |  |  |  |  |  |  |  |  |  |  |  |  |  |  |  |  |  | OD 490 nm [23]: 1.3 OD
4 | hinge 76 monoclonal antibody (Bio-Rad) |  |  |  |  |  |  |  |  |  |  |  |  |  |  |  |  |  |  |  |  | Kd [24]: 23.5 nM; koff [24]: 0.00272 s⁻¹; kon [24]: 117000 M⁻¹ s⁻¹; Kd [25]: 0.173 nM; koff [25]: 0.000194 s⁻¹; kon [25]: 1.12e+06 M⁻¹ s⁻¹
5 | B1 |  |  |  |  |  |  |  |  |  |  |  |  |  |  |  |  |  |  |  |  | IC50 (read off the curve) [26]: 2 µg/mL
